This note sets out measurements from the supplement of paper PMC5998384.

In data set [1] the test system is HeLa Kyoto. Briefly: solubility in G1/S (NP-40 vs SDS abundance) (log2 ratio); higher = more soluble. Particulars: cell cycle stage: G1/S.
The subject of data set [2] is HeLa Kyoto. Nature of the data set: melting temperature (median over replicates), in situ; higher = more thermally stable.
The subject of data set [3] is HeLa Kyoto. Briefly: solubility change mitosis vs G1/S (difference of NP-40 vs SDS log2 ratios) (log2 ratio difference); higher = more soluble in mitosis.
Data set [4] relates to HeLa Kyoto. Nature of the data set: thermal stability score vs G1/S (z-score of summed log2 fold changes over temperatures); higher = more thermally stable than in G1/S.
The mark [5] stands for this setting: cell cycle stage: early G1 (4.5 h after nocodazole release).
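Throughout, for melting temperature (median over replicates), in situ: HeLa Kyoto cells synchronized by double thymidine or nocodazole block, proteins quantified by TMT10plex mass spectrometry, three independent biological replicates.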
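Throughout, for solubility change mitosis vs G1/S (difference of NP-40 vs SDS log2 ratios): synchronized HeLa Kyoto cells (double thymidine block for G1/S, nocodazole release for mitosis), protein amounts in NP-40 versus SDS lysates quantified by mass spectrometry, three biological replicates.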
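Throughout, for solubility in G1/S (NP-40 vs SDS abundance): HeLa Kyoto cells arrested at G1/S by double thymidine block, proteins quantified by TMT10plex mass spectrometry in mild NP-40 versus SDS extracts, three biological replicates.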
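Throughout, for thermal stability score vs G1/S (z-score of summed log2 fold changes over temperatures): synchronized HeLa Kyoto cells, proteins quantified by TMT10plex mass spectrometry, three biological replicates, mitosis taken 0.5 h after nocodazole release, G1/S directly after double thymidine block.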

On to “MACAAVMIPGLLRCSVGAIRIEAASLRLTLSTLRHLTLTSIMKSKRKTDHMERTASVLRREIVSAAKVCGAASESPSVKSLRLLVADQDFSFKAGQWVDFFIPGVSVVGGFSICSSPRLLEQERVIELAVKYTNHPPALWVHNTCTLDCEVAVRVGGEFFFDPQPADASRNLVLIAGGVGINPLLSILRHAADLLREQANKRNGYEIGTIKLFYSAKNTSELLFKKNILDLVNEFPEKIACSLHVTKQTTQINAELKPYITEGRITEKEIRDHISKETLFYICGPPPMTDFFSKQLENNHVPKEHICFEKWW [OXNAD1]”, for which the “solubility in G1/S (log2)” value in data set [1] was -0.0285. In addition, the melting temperature in data set [2] (cell cycle stage: G1/S) is 53.9 °C; in data set [2] (cell cycle stage: mitosis), 54.7 °C. For the same sequence, in data set [3], the “solubility change mitosis (log2)” value was -0.0113. In addition, the thermal stability score is -0.605 in data set [4] (setting [5]) and -0.938 in data set [4] (cell cycle stage: mitosis).

“MACRGGAGNGHRASATLSRVSPGSLYTCRTRTHNICMVSDFFYPNMGGVESHIYQLSQCLIERGHKVIIVTHAYGNRKGIRYLTSGLKVYYLPLKVMYNQSTATTLFHSLPLLRYIFVRERVTIIHSHSSFSAMAHDALFHAKTMGLQTVFTDHSLFGFADVSSVLTNKLLTVSLCDTNHIICVSYTSKENTVLRAALNPEIVSVIPNAVDPTDFTPDPFRRHDSITIVVVSRLVYRKGIDLLSGIIPELCQKYPDLNFIIGGEGPKRIILEEVRERYQLHDRVRLLGALEHKDVRNVLVQGHIFLNTSLTEAFCMAIVEAASCGLQVVSTRVGGIPEVLPENLIILCEPSVKSLCEGLEKAIFQLKSGTLPAPENIHNIVKTFYTWRNVAERTEKVYDRVSVEAVLPMDKRLDRLISHCGPVTGYIFALLAVFNFLFLIFLRWMTPDSIIDVAIDATGPRGAWTNNYSHSKRGGENNEISETR [PIGA]”: in data set [1], the “solubility in G1/S (log2)” value is -0.107. For the same sequence, the results for the melting temperature in data set [2] (cell cycle stage: G1/S) and in data set [2] (cell cycle stage: mitosis) were 55 °C and 53.6 °C, respectively. The “solubility change mitosis (log2)” value in data set [3] was -0.133. In addition, the values for the thermal stability score in data set [4] (setting [5]) and in data set [4] (cell cycle stage: mitosis) were -0.383 and -0.682, respectively.

Turning to “MADAASQVLLGSGLTILSQPLMYVKVLIQVGYEPLPPTIGRNIFGRQVCQLPGLFSYAQHIASIDGRRGLFTGLTPRLCSGVLGTVVHGKVLQHYQESDKGEELGPGNVQKEVSSSFDHVIKETTREMIARSAATLITHPFHVITLRSMVQFIGRESKYCGLCDSIITIYREEGILGFFAGLVPRLLGDILSLWLCNSLAYLVNTYALDSGVSTMNEMKSYSQAVTGFFASMLTYPFVLVSNLMAVNNCGLAGGCPPYSPIYTSWIDCWCMLQKEGNMSRGNSLFFRKVPFGKTYCCDLKMLI [MTCH2]”, in data set [1], the “solubility in G1/S (log2)” value came out at 0.00924. For the same sequence, the melting temperature in data set [2] (cell cycle stage: G1/S) was 56.6 °C; in data set [2] (cell cycle stage: mitosis) it was 57 °C. For the same sequence, in data set [3], the “solubility change mitosis (log2)” value was -0.018. Besides, the thermal stability score is -2.66 in data set [4] (setting [5]) and -2.99 in data set [4] (cell cycle stage: mitosis).

As for “MADAEVIILPKKHKKKKERKSLPEEDVAEIQHAEEFLIKPESKVAKLDTSQWPLLLKNFDKLNVRTTHYTPLACGSNPLKREIGDYIRTGFINLDKPSNPSSHEVVAWIRRILRVEKTGHSGTLDPKVTGCLIVCIERATRLVKSQQSAGKEYVGIVRLHNAIEGGTQLSRALETLTGALFQRPPLIAAVKRQLRVRTIYESKMIEYDPERRLGIFWVSCEAGTYIRTLCVHLGLLLGVGGQMQELRRVRSGVMSEKDHMVTMHDVLDAQWLYDNHKDESYLRRVVYPLEKLLTSHKRLVMKDSAVNAICYGAKIMLPGVLRYEDGIEVNQEIVVITTKGEAICMAIALMTTAVISTCDHGIVAKIKRVIMERDTYPRKWGLGPKASQKKLMIKQGLLDKHGKPTDSTPATWKQEYVDYSESAKKEVVAEVVKAPQVVAEAAKTAKRKRESESESDETPPAAPQLIKKEKKKSKKDKKAKAGLESGAEPGDGDSDTTKKKKKKKKAKEVELVSE [DKC1]”, in data set [1], the “solubility in G1/S (log2)” value was -1.41. Further, the melting temperature in data set [2] (cell cycle stage: G1/S) worked out at 55.6 °C; in data set [2] (cell cycle stage: mitosis), 53.2 °C. For the same sequence, the “solubility change mitosis (log2)” value in data set [3] is 0.816. In addition, the thermal stability score in data set [4] (setting [5]) was -3.35; in data set [4] (cell cycle stage: mitosis), -5.27.

On to “MADAGIRRVVPSDLYPLVLGFLRDNQLSEVANKFAKATGATQQDANASSLLDIYSFWLKSAKVPERKLQANGPVAKKAKKKASSSDSEDSSEEEEEVQGPPAKKAAVPAKRVGLPPGKAAAKASESSSSEESSDDDDEEDQKKQPVQKGVKPQAKAAKAPPKKAKSSDSDSDSSSEDEPPKNQKPKITPVTVKAQTKAPPKPARAAPKIANGKAASSSSSSSSSSSSDDSEEEKAAATPKKTVPKKQVVAKAPVKAATTPTRKSSSSEDSSSDEEEEQKKPMKNKPGPYSSVPPPSAPPPKKSLGTQPPKKAVEKQQPVESSEDSSDESDSSSEEEKKPPTKAVVSKATTKPPPAKKAAESSSDSSDSDSSEDDEAPSKPAGTTKNSSNKPAVTTKSPAVKPAAAPKQPVGGGQKLLTRKADSSSSEEESSSSEEEKTKKMVATTKPKATAKAALSLPAKQAPQGSRDSSSDSDSSSSEEEEEKTSKSAVKKKPQKVAGGAAPSKPASAKKGKAESSNSSSSDDSSEEEEEKLKGKGSPRPQAPKANGTSALTAQNGKAAKNSEEEEEEKKKAAVVVSKSGSLKKRKQNEAAKEAETPQAKKIKLQTPNTFPKRKKGEKRASSPFRRVREEEIEVDSRVADNSFDAKRGAAGDWGERANQVLKFTKGKSFRHEKTKKKRGSYRGGSISVQVNSIKFDSE [NOLC1]”, for which the “solubility in G1/S (log2)” value in data set [1] was -0.953. Further, the values for the melting temperature in data set [2] (cell cycle stage: G1/S) and in data set [2] (cell cycle stage: mitosis) were 59.5 °C and 57 °C, respectively. In data set [3], the “solubility change mitosis (log2)” value was found to be 1.11. In addition, the figures for the thermal stability score in data set [4] (setting [5]) and in data set [4] (cell cycle stage: mitosis) were -2.83 and -4.21, respectively.

As for “MADDDVLFEDVYELCEVIGKGPFSVVRRCINRETGQQFAVKIVDVAKFTSSPGLSTEDLKREASICHMLKHPHIVELLETYSSDGMLYMVFEFMDGADLCFEIVKRADAGFVYSEAVASHYMRQILEALRYCHDNNIIHRDVKPHCVLLASKENSAPVKLGGFGVAIQLGESGLVAGGRVGTPHFMAPEVVKREPYGKPVDVWGCGVILFILLSGCLPFYGTKERLFEGIIKGKYKMNPRQWSHISESAKDLVRRMLMLDPAERITVYEALNHPWLKERDRYAYKIHLPETVEQLRKFNARRKLKGAVLAAVSSHKFNSFYGDPPEELPDFSEDPTSSGLLAAERAVSQVLDSLEEIHALTDCSEKDLDFLHSVFQDQHLHTLLDLYDKINTKSSPQIRNPPSDAVQRAKEVLEEISCYPENNDAKELKRILTQPHFMALLQTHDVVAHEVYSDEALRVTPPPTSPYLNGDSPESANGDMDMENVTRVRLVQFQKNTDEPMGITLKMNELNHCIVARIMHGGMIHRQGTLHVGDEIREINGISVANQTVEQLQKMLREMRGSITFKIVPSYRTQSSSCERDSPSTSRQSPANGHSSTNNSVSDLPSTTQPKGRQIYVRAQFEYDPAKDDLIPCKEAGIRFRVGDIIQIISKDDHNWWQGKLENSKNGTAGLIPSPELQEWRVACIAMEKTKQEQQASCTWFGKKKKQYKDKYLAKHNAVFDQLDLVTYEEVVKLPAFKRKTLVLLGAHGVGRRHIKNTLITKHPDRFAYPIPHTTRPPKKDEENGKNYYFVSHDQMMQDISNNEYLEYGSHEDAMYGTKLETIRKIHEQGLIAILDVEPQALKVLRTAEFAPFVVFIAAPTITPGLNEDESLQRLQKESDILQRTYAHYFDLTIINNEIDETIRHLEEAVELVCTAPQWVPVSWVY [CASK]”, the “solubility in G1/S (log2)” value in data set [1] is -0.129. The melting temperature in data set [2] (cell cycle stage: G1/S) came out at 52.1 °C; in data set [2] (cell cycle stage: mitosis), 51.9 °C. The “solubility change mitosis (log2)” value in data set [3] is -0.0742. Besides, the values for the thermal stability score in data set [4] (setting [5]) and in data set [4] (cell cycle stage: mitosis) were -0.366 and -0.0785, respectively.
